From paper PMC3516566, “Identification of an Acinetobacter baumannii Zinc Acquisition System that Facilitates Resistance to Calprotectin-mediated Zinc Sequestration” come the findings set out here.

For the series, the target named is T1, Zur (Acinetobacter baumannii ATCC 17978, UniProt V5VHH0 1-161).
T1 sequence: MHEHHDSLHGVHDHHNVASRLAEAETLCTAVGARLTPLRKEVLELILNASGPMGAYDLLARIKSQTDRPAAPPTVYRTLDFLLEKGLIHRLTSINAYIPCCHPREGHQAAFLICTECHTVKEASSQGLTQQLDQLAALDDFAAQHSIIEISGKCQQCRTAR
As to the kind of experiment: EMSA; 100 uM ZnCl2; Zur 0-2500 nM, DNA 250 nM; 20 mM Tris-HCl pH 8.0, 50 mM KCl, 1 mM DTT, 5% glycerol, 100 uM ZnCl2, 20 min at room temperature; 4% polyacrylamide gel. As to conditions: protein: recombinant; tags: N-terminal 6xHis (pET15b), removed by thrombin; chain copies: 2; label: none (SYBR green stain); blunt.

B1: znuA intragenic negative control (dsDNA)
DNA 1: GTTACAAAAATACCTAAGATTAATCGAAT
DNA 2: ATTCGATTAATCTTAGGTATTTTTGTAAC
Turning to B1, the binding result is recorded as “no binding”.
